From US20240247080A1, “GLP1/GIP/NPY2 RECEPTOR TRIPLE AGONISTS” (Boehringer Ingelheim International GmbH, priority 2022, published 2024)
Starred links: 1 amine or outer side, 2 acyl side, 3 side chain; linkers in the order of their positions; H or OH if unused. Non-standard residues stand in square brackets, D forms with d. Groups on a side chain read outwards from the residue. No end group written: not given here. *: point of attachment. C20 diacid = O=C(O)CCCCCCCCCCCCCCCCCCC(=O)*; C18 diacid = O=C(O)CCCCCCCCCCCCCCCCC(=O)*; γGlu = O=C(O)[C@H](CCC(=O)[*:2])N[*:1]; εLys = N[C@@H](CCCCN[*:1])C(=O)[*:2]; AEEA = NCCOCCOCC(=O)O; Aib = CC(C)(N)C(=O)O

T1: GIP receptor (human (printed as hGIPR), UniProt P48546 22-466)
T1 sequence (looked up): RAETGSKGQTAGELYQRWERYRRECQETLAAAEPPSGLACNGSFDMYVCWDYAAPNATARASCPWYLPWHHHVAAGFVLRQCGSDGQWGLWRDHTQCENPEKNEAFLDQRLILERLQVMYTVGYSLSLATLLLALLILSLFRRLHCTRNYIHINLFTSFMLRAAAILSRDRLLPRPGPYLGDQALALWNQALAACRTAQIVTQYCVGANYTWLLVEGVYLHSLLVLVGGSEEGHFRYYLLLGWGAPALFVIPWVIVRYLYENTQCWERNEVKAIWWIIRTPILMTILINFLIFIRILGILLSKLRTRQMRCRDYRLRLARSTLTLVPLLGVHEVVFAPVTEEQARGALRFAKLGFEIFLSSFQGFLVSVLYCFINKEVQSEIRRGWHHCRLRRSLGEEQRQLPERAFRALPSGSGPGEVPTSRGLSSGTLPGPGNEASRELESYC

T2: NPY2 receptor (human (printed as hNPY2R), UniProt P49146 1-381)
T2 sequence (looked up): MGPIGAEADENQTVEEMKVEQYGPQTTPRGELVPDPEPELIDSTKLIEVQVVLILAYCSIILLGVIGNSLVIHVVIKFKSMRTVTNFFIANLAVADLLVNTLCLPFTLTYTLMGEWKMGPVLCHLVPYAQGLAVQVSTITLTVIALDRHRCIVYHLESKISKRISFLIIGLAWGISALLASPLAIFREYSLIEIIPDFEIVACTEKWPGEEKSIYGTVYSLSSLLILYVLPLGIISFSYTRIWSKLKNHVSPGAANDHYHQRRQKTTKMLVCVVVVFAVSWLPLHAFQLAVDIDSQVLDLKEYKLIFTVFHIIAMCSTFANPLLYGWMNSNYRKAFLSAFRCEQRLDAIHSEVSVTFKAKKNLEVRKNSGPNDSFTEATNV

T3: human GIP receptor (human, UniProt P48546 22-466)
T3 sequence (looked up): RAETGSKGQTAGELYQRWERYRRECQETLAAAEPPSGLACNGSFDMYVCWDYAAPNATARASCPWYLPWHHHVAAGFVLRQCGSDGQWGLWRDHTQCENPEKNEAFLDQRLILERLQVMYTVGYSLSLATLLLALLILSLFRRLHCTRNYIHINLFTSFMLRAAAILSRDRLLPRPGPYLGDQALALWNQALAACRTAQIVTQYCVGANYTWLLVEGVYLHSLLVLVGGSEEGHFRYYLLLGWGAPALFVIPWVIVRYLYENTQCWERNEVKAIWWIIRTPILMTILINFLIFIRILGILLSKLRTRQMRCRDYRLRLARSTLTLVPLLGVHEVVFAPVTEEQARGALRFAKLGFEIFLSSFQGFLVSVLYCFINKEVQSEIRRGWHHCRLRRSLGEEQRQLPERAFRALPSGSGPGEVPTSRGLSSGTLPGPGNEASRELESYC

T4: human neuropeptide Y2 receptor (human, UniProt P49146 1-381)
T4 sequence (looked up): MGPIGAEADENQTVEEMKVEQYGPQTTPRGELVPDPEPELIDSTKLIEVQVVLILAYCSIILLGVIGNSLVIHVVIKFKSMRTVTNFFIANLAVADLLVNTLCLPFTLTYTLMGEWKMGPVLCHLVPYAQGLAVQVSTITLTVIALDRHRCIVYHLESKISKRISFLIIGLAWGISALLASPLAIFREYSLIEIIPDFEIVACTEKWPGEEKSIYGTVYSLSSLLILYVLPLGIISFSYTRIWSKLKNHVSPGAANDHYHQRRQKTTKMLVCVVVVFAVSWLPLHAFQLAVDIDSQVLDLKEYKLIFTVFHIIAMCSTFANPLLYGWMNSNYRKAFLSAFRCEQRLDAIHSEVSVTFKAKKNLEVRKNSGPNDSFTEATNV


What was measured:
Test in all cases: cell-based or functional assay
[1] = biological target: GLP-1 receptor (human (printed as hGLP1R), UniProt P43220 24-463)
[2] = biological target: T1, GIP receptor
[3] = biological target: T2, NPY2 receptor
[4] = biological target: human GLP-1 receptor (human, UniProt P43220 24-463)
[5] = biological target: T3, human GIP receptor
[6] = biological target: T4, human neuropeptide Y2 receptor

EC50 hGLP1R 0.5% hP (CreLuc) [1] [nM]	EC50 hGLP1R 100% hP (CreLuc) [1] [nM]	EC50 hGIPR 0.5% hP (CreLuc) [2] [nM]	EC50 hGIPR 100% hP (CreLuc) [2] [nM]	EC50 hNPY2R 0.5% hP (CreLuc) [3] [nM]	EC50 hNPY2R 100% hP (CreLuc) [3] [nM]	EC50 CreLuc hGLP1R 0.5% hP [4] [nM]	EC50 CreLuc hGLP1R 100% hP [4] [nM]	EC50 CreLuc hGIPR 0.5% hP [5] [nM]	EC50 CreLuc hGIPR 100% hP [5] [nM]	EC50 CreLuc hNPY2R 0.5% hP [6] [nM]	EC50 CreLuc hNPY2R 100% hP [6] [nM]	Binder
0.15	5.93	0.12	1.16	16.9	105							Y[Aib]EGTFTSDYSI[Aib]LEKQAQ[Aib]AFVQWLIK([AEEA-AEEA-Glu-Glu-Glu-C18 diacid])GGPEEGASLRHYYNWLTRQRY-NH2 (also: TFA salt) [Compound 188]
0.16	12.5	0.28	2.83	18.7	115							Y[Aib]EGTFTSDYSI[Aib]LEKQAQ[Aib]AFVQWLIK([AEEA-AEEA-Glu-Glu-Glu-Glu-C18 diacid])GGPEEGASLRHYYNWLTRQRY-NH2 (also: TFA salt) [Compound 177]
0.22	10.5	0.38	3.34	18.5	111							Y[Aib]EGTFTSDYSI[Aib]LEKQAQ[Aib]EFVQWLIK([Glu-Glu-Glu-Glu-Glu-Glu-C18 diacid])GGPSEGASLRHYYNWLTRQRY-NH2 (also: TFA salt) [Compound 179]
0.22	12.8	0.28	6.83	9.34	56.6							Y[Aib]EGTFTSDYSI[Aib]LEKQAQ[Aib]AFVEWLIKGGPSSYASLRHYYNWLTRQRY-NH2 (not fully specified (residue 28); also: TFA salt) [Compound 183]
0.4	11	0.33	5.59	13.3	66.8							Y[Aib]EGTFTSDYSI[Aib]LEKQAQ[Aib]EFVQWLIK([γGlu-γGlu-γGlu-γGlu-γGlu-γGlu-C20 diacid])GGPSEGASLRHYYNWLTRQRY-NH2 (also: TFA salt) [Compound 185]
						0.07	4.24	0.08	0.64	12.5	57.9	Y[Aib]EGTFTSDYSI[Aib]LEKQAQ[Aib]AFVEWLIK([AEEA-AEEA-γGlu-γGlu-γGlu-C18 diacid])GGPESGASLRHYYNWLTRQRY-NH2 [Compound 166]
0.22	7.71	0.17	1.26	11.5	39.2							Y[Aib]EGTFTSDYSI[Aib]LEKQAE[Aib]AFVQWLIKGGPSEGASLRHYYNWLTRQRY-NH2 (not fully specified (residue 28); also: TFA salt) [Compound 174]
0.08	5.51	0.12	5.86	13.3	115							Y[Aib]EGTFTSDYSI[Aib]LEKQAQ[Aib]AFVEWLIKGGPSSPASLRHYYNWLTRQRY-NH2 (not fully specified (residue 28); also: TFA salt) [Compound 178]
0.1	5.3	0.29	1.53	10.5	48.7							Y[Aib]EGTFTSDYSI[Aib]LEKQAQ[Aib]AFVEWLIK([AEEA-AEEA-γGlu-γGlu-γGlu-γGlu-C20 diacid])GGPSSPASLRHYYNWLTRQRY-NH2 (also: TFA salt) [Compound 175]
						0.13	4.81	0.33	1.88	8.91	36	Y[Aib]EGTFTSDYSI[Aib]LEKQAQ[Aib]AFVQWLIK([AEEA-AEEA-γGlu-γGlu-Glu-γGlu-C20 diacid])GGPSEPASLRHYYNWLTRQRY-NH2 [Compound 165]
0.14	3.23	0.16	1.23	16.5	102							Y[Aib]EGTFTSDYSI[Aib]LEEQAQ[Aib]AFVEWLIK([εLys-γGlu-γGlu-γGlu-γGlu-γGlu-C20 diacid])GGPSSGASLRHYYNWLTRQRY-NH2 (also: TFA salt) [Compound 181]
0.29	9.56	0.68	3.37	30.4	197							YXEGTFTSDYSIXLEKQAQXEFVQWLIKGGPSEGASLRHYYNWLTRQRY (Aib at 2, 13, 20; K28 side chain carries C18DA-E-E-E-E-E (SEQ ID NO: 636); C-terminal amide) [Compound 176]
0.18	1.87	0.28	1.37	46	125							YXEGTFTSDYSIXLEKQAQXAFVEWLIKGGPSSGASLRHYXNWLTRQRY (Aib at 2, 13, 20, 41; K28 side chain carries C20DA-gGlu-gGlu-gGlu-gGlu-gGlu-gGlu-eLys; C-terminal amide) [Compound 184]
0.11	1.25	0.11	0.77	> 99.9	904							YXEGTFTSDYSIXLEKQAQXAFVQWLIKGGPSEGASLRHYYNWLTRXRY (Aib at 2, 13, 20; bHGln (beta-homo-L-glutamine) at 47; K28 side chain carries C20DA-gGlu-gGlu-gGlu-gGlu-gGlu-gGlu-eLys; C-terminal amide) [Compound 186]
						0.11	3.59	0.2	1.5	6.05	36.1	YXEGTFTSDYSIXLEKQAQXAFVEWLIKGGPRSGASLRHYYNWLTRQRY (Aib at 2, 13, 20; K28 side chain: C20DA-gGlu-gGlu-gGlu-gGlu-gGlu-gGlu-eLys; C-terminal NH2) [Compound 168]
0.13	2.73	0.21	1.39	70.4	256							YXEGTFTSDYSIXLEKQAQXAFVEWLIKGGPSSGASLRXYYNWLTRQRY (Aib at 2, 13, 20, 39; K28 side chain carries C20DA-gGlu-gGlu-gGlu-gGlu-gGlu-gGlu-eLys; C-terminal amide) [Compound 182]
						0.04	0.82	0.14	0.49	10.5	26.5	YXEGTFTSDYSIXLEKQAQXAFVQWLIKGGPSSGASLRHYYNWLTRQRY (Aib at 2, 13, 20; K28 side chain: C18DA-gGlu-gGlu-gGlu-gGlu-gGlu-OEG-OEG; C-terminal NH2) [Compound 167]
0.1	3.61	0.2	3.88	19.6	107							YXEGTFTSDYSIXLEKQAQXAFVEWLIKGGPSSPASLRHYYNWLTRQRY (Aib at 2, 13, 20; K28 side chain carries C18DA-gGlu-gGlu-gGlu-gGlu-gGlu; C-terminal amide) [Compound 180]
0.11	3.07	0.27	0.94	12.4	24.9							Y[Aib]EGTFTSDYSI[Aib]LEKQAQ[Aib]AFVQWLIK([AEEA-AEEA-γGlu-γGlu-γGlu-γGlu-C18 diacid])GGPSEPASLRHYYNWLTRQRY-NH2 (also: TFA salt) [Compound 173]
